In patent US20240392013A1, “IL1RAP ANTIBODIES AND USES THEREOF” (STELEXIS THERAPEUTICS, LLC, priority 2021, published 2024):

Key:
[1] = test system: AML patient samples; experiment: Clonogenic capacity of AML patient samples; type: cell-based, human; details: 333 nM, two weeks
Description: AML patient samples or healthy control samples (4000 cells) were washed and resuspended in 30 μl Iscove's Modified Dulbecco's Medium (IMDM) media supplemented with 2% FBS. Cells […] were mixed with 3 ml methylcellulose (MthoCult H4034 Optimum) supplemented with pen/strep or primocin (100 μg/ml) and IL1RAP antibodies (333 nM) and 1 ml were seeded in 35 mm dishes in duplicates. The dishes were incubated at 37° C./5% CO2 in humidified incubator for 14-16 days. Colonies were counted using inverted microscope.

[2] = test system: SK-MEL-5 cells; experiment: Jurkat-Lucia NFAT-CD16 ADCC reporter assay against SK-MEL-5 cells; type: cell-based; details: SK-MEL-5 target cells
Description: Methods: ADCC activity is mediated through binding of NK cell's CD16 receptors to the Fc region of antibodies. A Jurkat-Lucia NFAT-CD16 ADCC Reporter cell assay (Invivogen, Cat #jktl-nfat-cd16; https://www.invivogen.com/jurkat-lucia-nfat-adcc-adcp-cells) was used to analyze IL1RAP mAb STLX2012 for ADCC activity. Briefly, the Jurkat cell line was engineered to express the cell surface Fc receptor CD16A (FcγRIIIA) and the Lucia luciferase reporter gene. ADCC is triggered by CD16A cross-linking upon antigen-bound antibody binding at the surface of immune effector cells. Cells are maintained in the presence of zeocin (100 μg/ml) and blasticidin (10 μg/ml).
The STLX2012-DLE antibody was then analyzed for ADCC activity using the Jurkat-Lucia NFAT-CD16 ADCC Reporter cell assay, described in Example 11 above.

[3] = test system: IL36-induced downstream signaling (phospho-ERK, AKT, p38, NFκB) in HPAC, CAL33, 5637 cells; experiment: IL36 signaling in solid tumor cancer cells, Western blot; type: cell-based; details: IL36γ, antibody 20 μg/ml
Description: AML patient samples or cancer cells (AML, chronic myelogenous leukemia (CML), pancreatic, head and neck squamous cell carcinoma (HNSCC), bladder, non-small-cell lung carcinoma (NSCLC), colorectal and triple-negative breast cancer (TNBC)) were seeded in 6-well plates (5×10^5 cells/well) and incubated overnight at 37° C./5% CO2 in humified incubator. In experiments conducted in cancer cell lines, cells were washed 2× with PBS and serum-starved for 3 hours. Following, cells were treated with IL1RAP antibodies at concentration of 20 μg/ml and incubated for 1 h at 37° C./5% CO2 in humidified incubator. After 1 h, cells were treated with IL1β (Invivogen, cat: rcyec-hil1b), IL33 (Adipogen, cat: AG-40B-0160-C010) or IL36 cytokines (R@D, cat: 6836IL) at 100 ng/ml and incubated for 15 more minutes. Cells were harvested on ice after 1× wash with cold PBS and were centrifuged for 5 minutes at 5000 rpm at 4° C. Cells were then lysed with NP-40 buffer for 5 minutes on ice and centrifuged for 15 minutes at 15000 rpm at 4° C. Supernatants were collected and protein concentrations were determined by BCA (Thermofisher, Cat #PI23225). […] After 3× washes, ECL was applied (Thermofisher, Cat #32106) and proteins were detected after exposure to autoradioraphic films (Worldwide medical products, Cat #41101001) and protein intensity was quantitated using ImageJ software.

B1: 74804_12A21B: anti-IL1RAP mAb; VH SEQ ID NO:6, VL SEQ ID NO:23, κ light chain (antibody, V domains shown)
VH: QVQLLQSGAEVKKPGSSVKVSCKASGGTFSIYAIDWVRQAPGQGLEWMGGIIPIFGTANSAQKFQGRVTITADKSTSTAYMELSSLRSEDTAVYYCARNGATSDAFDMWGQGTMVTVSS
VL: EIVLTQSPGTLSLSPGERATLSCRASLSVSSNYLAWFQQRPGQAPRLLIHGVSRRATGIPDRFSGSGSGTDFTLTISRLEPEDFAVYYCQQYGSSPLTFGGGTKVEIK
modifications: 74804_12A21B VH and 74804_29D13A VH; 74804_12A21B VL
Inhibition of clonogenic capacity (colony formation) [1]: inhibited the clonogenic capacity
ADCC activity (reporter) [2]: showed ADCC activity
Inhibition of IL36 signaling (phosphorylation of ERK, AKT, p38 and NFκB) [3]: Inhibition of IL36 signaling in solid tumor cancer cells
